The record followed here is FireProtDB (doi:10.1111/j.1432-1033.1994.tb18977.x).

The conditions of the data set: Saccharomyces cerevisiae (strain ATCC 204508 / S288c), pH 7, 30 °C, Urea, Fluorescence, Potassium phosphate 50 mM.

Chain of Cytochrome c isoform 1 D96C|C108T, P00044 D96C C108T (P00044 whole entry D96C/C108T, canonical isoform): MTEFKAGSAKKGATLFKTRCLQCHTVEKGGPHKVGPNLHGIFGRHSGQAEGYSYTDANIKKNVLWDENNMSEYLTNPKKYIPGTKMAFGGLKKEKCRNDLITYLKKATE
Chain of Cytochrome c isoform 1 R19C|C108T, P00044 R19C C108T (P00044 whole entry R19C/C108T, canonical isoform): as the sequence (P00044 whole entry D96C/C108T, canonical isoform) above, with R19C, C96D counted along it
Chain of Cytochrome c isoform 1 wild type, P00044 (P00044 whole entry, canonical isoform): as the sequence (P00044 whole entry D96C/C108T, canonical isoform) above, with C96D, T108C counted along it
Chain of Cytochrome c isoform 1 C108T, P00044 (P00044 whole entry C108T, canonical isoform): as the sequence (P00044 whole entry D96C/C108T, canonical isoform) above, with C96D counted along it

In the case of “Cytochrome c isoform 1 wild type, P00044”, the denaturant m value came out at 0.91 kcal/mol/M, the “denaturant midpoint (higher = more stable)” value (“denaturant midpoint” for short) is 2.6 M and the unfolding free energy was 2.39 kcal/mol.

With Cytochrome c isoform 1 C108T, P00044, under “structure 1YCC”, the “ddG of mutation (higher = less stable)” value was -4.09 kcal/mol, the denaturant m value stood at 1.79 kcal/mol/M, the “denaturant midpoint” value came out at 3.6 M and the unfolding free energy was 6.48 kcal/mol.

In the case of “Cytochrome c isoform 1 R19C|C108T, P00044 R19C C108T”, for the setting “structure 1YCC”, the “ddG of mutation (higher = less stable)” value is -4.21 kcal/mol, the denaturant m value was 1.79 kcal/mol/M, the “denaturant midpoint” value was 3.7 M and the unfolding free energy was 6.6 kcal/mol.

For “Cytochrome c isoform 1 D96C|C108T, P00044 D96C C108T”, where the note is “structure 1YCC”, the “ddG of mutation (higher = less stable)” value was -0.91 kcal/mol, the denaturant m value was determined as 1.2 kcal/mol/M, the “denaturant midpoint” value amounted to 2.8 M and the unfolding free energy amounted to 3.3 kcal/mol.
